These results are taken from the DeepSol protein solubility set.

A short description of this data set: soluble on expression in E. coli; label from the status in PepcDB or PDB records.
On to “MAHHHHHHMTDVVEAPRPATVAEAFANTAKALEQFNIERIRVEGLSCKSSITHCRKHDKNNMEKEEDVRTLTEQAFMREFVFQSRPCVIVGALEDWPAMQRWRDDRYLFDLDGHLSRVRRETDDAAAPSSEGTAATGDVAVVPKNNDHDSSDDNTHPREREEEKDGLKRVTVALTPNGRADAVTYVTYQGAREEGRENDVDGKKDNVEEHFIKTEKLFMAAAEIRATLPELYHLLRENPLYPPVRPVFVDLRRPAPVVAYAQMQNNCLEVEYQHLHGDIPPELDRFGERVFGEPHEAANVWFGTPASVSSMHQDWVENLYAVVRGVKEFILLPPWEGVFVPKPELPSAAFSVQRQDGVNGYVFSGTPVHDGLTIPWMDVEFTPAALEDVSLMPTNMQERLHPLVVYVQPGEVLYLPAMWLHRVAQHADDTDRLAREKQLTSSLQSAQDPPLPLIAAVNYWYDMSFTNPAVVMLREFGLLL”, for which the “soluble on expression in E. coli” value is given as “soluble”.
For “GAMSGLADKVIWAVNAGGESHVDVHGIHYRKDPLEGRVGRASDYGMKLPILRSNPEDQVLYQTERYNEDSFGYDIPIKEEGEYVLVLKFAEVYFAQSQQKVFDVRVNGHTVVKDLDIFDRVGHSTAHDEIIPISIKKGKLSVQGEVSTFTGKLSVEFVKGYYDNPKVCALFIMKGTADDVPMLQPHPGLE”, the “soluble on expression in E. coli” value is reported as “soluble”.
Then “MSLNKQDGENTLQHEKSSSFGYWCSPSPEQLERLSLKQLAAVSNFVIGRRGYGCITFQHDVDLTAFTKSFREELFGKIVIFRSSKTVEVYPDEATKPMIGHGLNVPAIITLENVYPVDKKTKKPMKDTTKFAEFQVFDRKLRSMREMNYISYNPFGGTWTFKVNHFEGHHHHHH”, with “soluble”; and “AEEFPVPNGFESAYREVDGVKLHYVKGGQGPLVMLVHGFGQTWYEWHQLMPELAKRFTVIAPDLPGLGQSEPPKTGYSGEQVAVYLHKLARQFSPDRPFDLVAHDIGIWNTYPMVVKNQADIARLVYMEAPIPDARIYRFPAFTAQGESLVWHFSFFAADDRLAETLIAGKERFFLEHFIKSHASNTEVFSERLLDLYARSYAKPHSLNASFEYYRALNESVRQNAELAKTRLQMPTMTLAGGGHGGMGTFQLEQMKAYAEDVEGHVLPGCGHWLPEECAAPMNRLVIDFLSRGRHHHHHH”, with “soluble”; and “SMKAIVVINLVKINKKIIPDKIYVYRLFNDPEEELQKEGYSIYRLAYENVGIVIDPENLIIATTKELEYEGEFIPEGEISFSELRNDYQSKLVLRLLKENGIGEYELSKLLRKFRKPKTFGDYKVIPSVEMSVIKHDEDFYLVIHIIHQIQSMKTLWELVNKDPKELEEFLMTHKENLMLKDIASPLKTVYKPCFEEYTKKPKLDHNQEIVKYWYNYHIERYWNTPEAKLEFYRKFGQVDLKQPAILAKFASKIKKNKNYKIYLLPQLVVPTYNAEQLESDVAKEILEYTKLMPEERKELLENILAEVDSDIIDKSLSEIEVEKIAQELENKIRVRDDKGNSVPISQLNVQKSQLLLWTNYSRKYPVILPYEVPEKFRKIREIPMFIILDSGLLADIQNFATNEFRELVKSMYYSLAKKYNSLAKKARSTNEIGLPFLDFRGKEKVITEDLNSDKGIIEVVEQVSSFMKGKELGLAFIAARNKLSSEKFEEIKRRLFNLNVISQVVNEDTLKNKRDKYDRNRLDLFVRHNLLFQVLSKLGVKYYVLDYRFNYDYIIGIDVAPMKRSEGYIGGSAVMFDSQGYIRKIVPIKIGEQRGESVDMNEFFKEMVDKFKEFNIKLDNKKILLLRDGRITNNEEEGLKYISEMFDIEVVTMDVIKNHPVRAFANMKMYFNLGGAIYLIPHKLKQAKGTPIPIKLAKKRIIKNGKVEKQSITRQDVLDIFILTRLNYGSISADMRLPAPVHYAHKFANAIRNEWKIKEEFLAEGFLYFV”, with “soluble”.
With “SAEEPEPDLGVAEGSEDQALEMPSWKAPEDIDPQPGSYEIRHYGPAKWVSTCVESLDWDSAIQTGFTKLNGYIQGKNEKEMKIKLTAPVTSYVEPGSSPFSLLMDSPVAKRIKNNF”, the “soluble on expression in E. coli” value is “soluble”.
Under “MSGFSVYVGNAPFQTTEDDLGNYFSQAGNVSNVRIVCDRETGRPRGFAFVEFTEEAAAQRAVDQFNGVDFNGRALRVNLAQNRNN” stands “not soluble”; under “MDTRDGNEKTRDAILDAAVMHVPFDGWSETTLRAAIRDSGVAPGLARALFPRGGVDLALAYHRRGDERMLEKAAAADLGALRYSERVAALIRFRLEAVEDKELVRRGSTLFSLPQHAGDGARALWGTADRIWTALGDSSRDLNWYTKRATLSAVYAATVLYWLGDDTPGHYATWEFLDRRIADVLRFEKMKTEAQRNPLLRAVTAGPRMVMRRVHAPAPPADVPGRSSRFLEHHHHHH”, “soluble”; under “MSQKTDAPLESYEVNGATIAVLPEEIDGKICSKIIEKDCVFYVNMKPLQIVDRSCRFFGSSYAGRKAGTYEVTKISHKPPIMVDPSNQIFLFPTLSSTRPQCGWISHVHVKEFKATEFDDTEVTFSNGKTMELPISYNSFENQVYRTAWLRTKFQDRIDHRVPKRQEFMLYPKEERTKMIYDFILRELGERYLEHHHHHH”, “not soluble”.
Under “MLLLSGFRYFRAVGVALLFLSVSLATVRADVRPETWQVVVDAGSSKTRGILYRLSADAVTPVVEYNSKLPLARYAGVPDESGNLLIAPLLDTLERLANDQKYALEKKTVLVNVLGTAGMRELSAGQQGVIYEAVKKSILAKGWALGQVGTIDGRDEGIFAWVHLNFLKGLATSDNTLGIIEMGGASSQITFALRSPPMDKADVSQNARTVMWDGKTYSVISESLLGLGADAARTAMNKVRPQDQRCYPQGALIMKVPTTGAFDFTACDLVYDEAIAANYQSEIKKLDAIVASSNYTQTDFVGLSSLYYTLNFFNNDLPERGTLKSALEQSCQRYADIEERLRQDDSKDKYQPENKCANGVFVYDLLYDYLQLGDGRLTALKKVENMDIRWTDGFLLLGKQAPLEHHHHHH” stands “not soluble”.
Then “MKIAVVTESSANLKAQAVKDYQITVVNDPIMFGNHVYHENVDITTDQFYRLLKVEKEIPTISQISMPEMQVVFDQLQAAGYDQILVIGLSSGISGWINNLKTYAPSVDGIDVRVFDSRTACAGTANMVKLAAAMALADYTLDEIIAQLTRLRAATTTVLIVNSMRHLVKNGRIYNNSSLAGTMVLRNKPIITFNGHGKIQLLGKERTLKNAQQAVQDEFSQFVMNSQLPVRLDVISANDARIAEDWASELRYQFPAVRVKTGVIGPVLGVLTGDHALGMIWSLDWKPLLTTLNQEQKQ”, with “not soluble”; and “YTEEFDPSKYGMADSYDEQGNYIFPEGFDPETNEWLEGFDEQRQAWEARYAESERRFQLHTVQIEKNRVAAAEAAAAGEATNYSSESAEAAPAAANTEAEGGSLASDEQLAALREKLAGN”, with “not soluble”.
With “MGSDKIHHHHHHMGKLLAINISKERGTEKREVPQAELVADYGIMGDAHAGKWHRQVSLLSAEKIDAFRARGAQIDNGAFGENLIISGFDFKNLPLGTRFCIGDAILEMTQIGKQCHSHCAIYKRMGECIMPKEGVFAVVIRGGQIHTGDEVKLIPANIYASIKDRPADSRCELLTVTEGAHAGEKALYIDGRIRVASGSAWADEINDNDNSIVMFKQQIGSRPRLIICGGGHVSAALVRMASLLAFDIWVIEDRPLFADNAKRQGADHVICGDYKKTLARLEPQADDYYVCMTRGHRFDMECLTEIFRKPYAYVGMMGSKKRAAIVKKDLEESGFSRENISGLHSPIGLAIGGQTPEEIALSVISEIVKCKNERTGCTQVDNEVLDALIEASDEKYILCTIIKKNGSAPRGVGTQMLVSSDNRIIGTIGGGCAEAEVISQCRRLFRKQEFKCGLMDVSMNTDDAEKEGMVCGGSISVLLEQLG”, the “soluble on expression in E. coli” value is “not soluble”.
Then “MPLMRAIGVIRKSRGERWSREEFEELLRSAGYEILAIVEQVREEHPRYNIGPGKLEEVKKLVKELKPDKVIFANRLTPSQAYNLWKELRVDIIDKWQLVLEIFEKRAHSKEAKLQVELANLQYELPLVKEAIRRIKMGDRAGFKGMGEYQVHQYLKHIKYRMGRIKGELEKIRAEREIRRKKREEEGFVLIALAGYTNAGKSTLLNALTGEDIEAKNQMFTTLDTTTRRFKVKGKMLLVTDTVGFIDGLPPFIVEAFHSTLEEIVKADIIILVLDASEPWKEIRRKLFASLNVLRELKALDRPMIVALNKVDLISDEDAKEKELLVRETIDGRANTVGVARISAKLNQLEELYNLIEVALSRLPKFQTFEIRVKDPSKLGKVLSMVHSMGDLLEVEYSEETKIKAYIQTGLIRELTKLGVSLKRISLEHHHHHH”, with “not soluble”.
